For orientation: EC50 means the midpoint of the concentration-response curve. A word on the Kd: it is the constant that tells how readily two partners part at equilibrium. A high value points to a looser complex.

2 molecules from patent US20230151111A1 (AKESO BIOPHARMA, published 2023) can be followed below.

In test [1] the target is T1, PD-1 on 293T-PD1 cell surface (human, UniProt Q15116 25-288).
T1 construct: whole, on cells
As to the kind of experiment: flow cytometry, 293T-PD1 cells; antibody 33.33 nM. How it is done:
(§1) 500 μL of PBSA was added, and the mixture was centrifuged at 5600 rpm for 5 min to remove the supernatant. […] The system was mixed gently and uniformly, and then was incubated on ice for 1 h. Then 500 μL of PBSA was added, and the mixture was centrifuged at 5600 rpm for 5 min to remove the supernatant. […] 500 μL of PBSA was added, and the mixture was centrifuged at 5600 rpm for 5 min to remove the supernatant. At last, 200 μL of PBSA was added to resuspend cell precipitates, and the mixture was transferred to a flow tube for FACSCalibur detection.
Background: In flow cytometry, cells or beads pass a laser one at a time.

The target in test [2] is T2, PD-1-mFc (human, UniProt Q15116 25-170, limits assumed).
T2 construct: also called human PD-1-mFc
Kind of test: ELISA, PD-1-mFc coated. As to the method:
A microplate was coated with PD-1-mFc at 0.5 μg/mL and incubated at 4° C. overnight. Then the microplate coated with antigens was washed once with PBST, and then blocked with a PBS solution containing 1% BSA as blocking solution at 37° C. for 2 h. After blocking, the microplate was washed 3 times with PBST. The microplate containing the test antibodies was incubated at 37° C. for 30 min, and then washed 3 times with PBST. […] After incubation, the plate was washed 4 times with PBST, TMB (Neogen, 308177) was added in the dark for chromogenesis for 5 min, and then a stop solution was added to terminate chromogenic reaction. The microplate was put into a microplate reader immediately, and the OD value of each well in the microplate was read at 450 nm. The data were analyzed and processed by SoftMax Pro 6.2.1,
Background: In an ELISA, binding on a coated surface is turned into a signal by an enzyme label.

Test [3] addresses T1, PD-1 on 293T-PD1 cell surface. Kind of test: flow cytometry, 293T-PD1 cells; antibody 0.05 nM. As to the method: as §1
Test [4] deals with T2, PD-1-mFc. Kind of test: BLI (Fortebio), antibody on AHC sensor, PD-1-mFc 0.6-50 nM, 37 C. How it is done: The sample dilution buffer was PBST, 0.1% BSA, pH 7.4. The antibody was immobilized on an AHC sensor at a concentration of 5 μg/mL with an immobilization height of about 0.4 nm. The sensor was equilibrated in a buffer for 60 s, and the binding of the immobilized antibody on the sensor to the antigen PD-1-mFc at concentrations of 0.6-50 nM (three-fold dilution) was determined in 120 s. The protein was dissociated in the buffer for 180 s. The detection temperature was 37° C., the detection frequency was 0.3 Hz, and the sample plate shaking rate was 1000 rpm. The data were analyzed by 1:1 model fitting to obtain affinity constants.
(In BLI a coated tip is dipped into the sample, and binding shifts an interference pattern.)

Test [5] addresses T1, PD-1 on 293T-PD1 cell surface. Kind of test: flow cytometry, 293T-PD1 cells; antibody 0.41 nM. As to the method:
as §1

For test [6] the target is unchanged. As to the kind of experiment: flow cytometry, 293T-PD1 cells; antibody 3.70 nM. As to the method: as §1
The target is the same in test [7]. Kind of test: flow cytometry, 293T-PD1 cells; antibody 1.23 nM. How it is done:
as §1

The target is the same in test [8]. Kind of test: flow cytometry, 293T-PD1 cells; antibody 0.14 nM. How it is done: as §1
Test [9] has the same target. As to the kind of experiment: flow cytometry, 293T-PD1 cells. How it is done: as §1
For test [10] the target is unchanged. Kind of test: flow cytometry, 293T-PD1 cells; antibody 100.00 nM. How it is done: as §1
For a further test, the target named is T3, human NT5E-Biotin (human, UniProt P21589 27-552, limits assumed, biotin label, site not stated).
T3 construct: Captured on streptavidin-coated plates; also called human NTSE-Biotin
T3 sequence (looked up): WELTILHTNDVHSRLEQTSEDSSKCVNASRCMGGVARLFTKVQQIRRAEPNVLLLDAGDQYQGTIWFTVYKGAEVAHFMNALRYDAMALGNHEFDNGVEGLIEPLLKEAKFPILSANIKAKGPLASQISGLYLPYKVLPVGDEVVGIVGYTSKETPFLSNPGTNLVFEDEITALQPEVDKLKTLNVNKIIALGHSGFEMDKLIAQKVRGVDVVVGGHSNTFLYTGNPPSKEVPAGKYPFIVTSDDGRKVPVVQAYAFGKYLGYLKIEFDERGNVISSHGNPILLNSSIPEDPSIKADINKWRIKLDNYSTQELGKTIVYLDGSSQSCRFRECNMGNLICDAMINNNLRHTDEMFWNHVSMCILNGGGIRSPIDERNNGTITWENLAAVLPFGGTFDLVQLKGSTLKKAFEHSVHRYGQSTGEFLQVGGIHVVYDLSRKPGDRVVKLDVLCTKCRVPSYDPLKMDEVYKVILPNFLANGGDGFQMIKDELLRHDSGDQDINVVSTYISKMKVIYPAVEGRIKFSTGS
As to the kind of experiment: ELISA, NT5E-biotin on streptavidin. How it is done: A microplate was coated with streptavidin at 2 μg/mL and then incubated at 4° C. overnight. After incubation, the microplate coated with streptavidin was washed once with PBST, and blocked with a PBS solution containing 1% BSA as a microplate blocking solution at 37° C. for 2 h. After blocking, the microplate was washed 3 times with PBST. Then, 0.5 μg/mL antigen human NTSE-Biotin was added and incubated at 37° C. for 30 min. Then, the plate was washed 3 times with PBST. The antibodies serially diluted with PBST solution (the dilution gradients for the antibody are shown in Table 3) were added to wells of the microplate. The microplate containing the test antibodies was incubated at 37° C. for 30 min, and then washed 3 times with PBST. […] After incubation, the plate was washed 4 times with PBST, TMB (Neogen, 308177) was added in the dark for chromogenesis for 5 min, and then a stop solution was added to terminate chromogenic reaction. The microplate was put into a microplate reader immediately, and the OD value of each well in the microplate was read at 450 nm. The data were analyzed and processed by SoftMax Pro 6.2.1.

Test [11] concerns the target T4, human PD-1-mFc-biotin (human, UniProt Q15116 25-170, limits assumed, biotin label, site not stated). As to the kind of experiment: competitive ELISA, blocking of PD-1-mFc-biotin binding to coated PD-L1-mFc. How it is done:
(§2) After incubation, the microplate was blocked with a PBS solution containing 1% BSA at 37° C. for 2 h. After blocking, the plate was washed three times and dried. The antibody was serially diluted to 7 concentrations in a gradient ratio of 1:3 on a dilution plate with 10 μg/mL as the starting concentration, and a blank control was set. […] Then the mixture after reaction was added to the coated microplate, and the microplate was incubated for at 37° C. for 30 min. After incubation, the plate was washed three times with PBST and dried. SA-HRP (KPL, 14-30-00) working solution was added, and the plate was incubated at 37° C. for 30 min. After incubation, the plate was washed four times and patted dry. Then TMB (Neogen, 308177) was added in the dark for chromogenesis for 5 min, and a stop solution was added to terminate chromogenic reaction. Then the microplate was put into a microplate reader immediately, and the OD value of each well in the microplate was read at 450 nm. The data were analyzed and processed by SoftMax Pro 6.2.1.

The target of test [12] is T1, PD-1 on 293T-PD1 cell surface. As to the kind of experiment: flow cytometry, 293T-PD1 cells; antibody 11.11 nM. How it is done:
as §1

In test [13] the target is T4, human PD-1-mFc-biotin. Kind of test: competitive ELISA, competitor coated PD-L1-mFc; antibody 5 ug/mL diluted 1:3. How it is done:
as §2

T1 sequence (Q15116 25-288): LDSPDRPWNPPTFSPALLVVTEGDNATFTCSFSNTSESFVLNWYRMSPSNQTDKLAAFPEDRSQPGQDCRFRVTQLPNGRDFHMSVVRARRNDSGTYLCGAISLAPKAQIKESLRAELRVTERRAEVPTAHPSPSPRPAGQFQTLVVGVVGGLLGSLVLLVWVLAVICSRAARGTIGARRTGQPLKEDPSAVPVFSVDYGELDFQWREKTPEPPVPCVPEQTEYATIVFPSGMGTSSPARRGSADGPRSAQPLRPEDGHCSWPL
T2 sequence (Q15116 other isoform, or with tags, fused parts or gaps limits assumed): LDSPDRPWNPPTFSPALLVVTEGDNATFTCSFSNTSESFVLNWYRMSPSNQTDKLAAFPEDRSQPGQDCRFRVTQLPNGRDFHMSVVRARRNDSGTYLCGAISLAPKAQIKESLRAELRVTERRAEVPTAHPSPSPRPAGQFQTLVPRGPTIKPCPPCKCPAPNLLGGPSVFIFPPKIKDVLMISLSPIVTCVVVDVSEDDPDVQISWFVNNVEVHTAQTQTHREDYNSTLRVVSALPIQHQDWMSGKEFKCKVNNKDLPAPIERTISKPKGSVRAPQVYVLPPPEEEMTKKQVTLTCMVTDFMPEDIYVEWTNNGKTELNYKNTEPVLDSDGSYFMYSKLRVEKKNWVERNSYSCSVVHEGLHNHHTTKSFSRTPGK
T4 sequence (Q15116 other isoform, or with tags, fused parts or gaps limits assumed): as above

B1: 14C12H1L1 (antibody, human IgG1, kappa)
heavy: not shown
light: DIQMTQSPSSMSASVGDRVTFTCRASQDINTYLSWFQQKPGKSPKTLIYRANRLVSGVPSRFSGSGSGQDYTLTISSLQPEDMATYYCLQYDEFPLTFGAGTKLELKRTVAAPSVFIFPPSDEQLKSGTASVVCLLNNFYPREAKVQWKVDNALQSGNSQESVTEQDSKDSTYSLSSTLTLSKADYEKHKVYACEVTHQGLSSPVTKSFNRGEC
notes: Humanized anti-PD-1 IgG1/kappa
With B1, the FACS signal in test [1] was found to be 1170; in test [3], 35.7; in test [5] it was 129; in [6] it was 975; in test [7] it was 438; in test [8], 57.7. The molecule further showed an FACS signal in test [10] of 1500. The EC50 with PD-1-mFc [2] was 0.033 nM; in test [9], 2.11 nM. For the same molecule, binding in the test with PD-1-mFc [4] was put at a Kd of 0.164 nM.

B2: P1D7V02R (bispecific antibody, human IgG1, kappa)
heavy: not shown
light: B1 light
notes: Morrison form IgG-scFv
Regarding B2, the FACS signal turned out to be 405 in [1]; 23.4 in [3]; 108 in test [5]; 404 in test [6]; 426 in [12]; 218 in test [7]. Moreover, the FACS signal in [8] was 43; in test [10] it was 301. Moreover, the EC50 with human NT5E-Biotin is 0.23 nM; with PD-1-mFc [2], 0.078 nM; with human PD-1-mFc-biotin [11], 1.33 nM; in test [9], 1.07 nM. The molecule further displayed an OD450 with human PD-1-mFc-biotin [13] of 0.051 OD.
